Data reported in the supplement of paper PMC9112550, “Optimization of the antimicrobial peptide Bac7 by deep mutational scanning” (BMC Biology, 2022).

What follows are sequences tested on Escherichia coli TOP10 (assay: shrunken log2 fold change of peptide-encoding DNA abundance (4.5 h post-induction vs induction); higher = less antimicrobial activity (less host growth inhibition)). Conditions: time post-induction: 4.5 h; library: site-saturation at positions 5, 18, 19, 20.
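Note: peptides expressed intracellularly from a pBAD plasmid library in pooled LB shake-flask culture, induced with 0.3% L-arabinose, DNA abundance read by NGS, three biological replicates, DESeq2 with apeglm shrinkage.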

Sequence | shrunken log2 fold change
RRIRQRPPRLPRPRPRPIGAPRP | -0.0217
RRIRGRPPRLPRPRPRPLYNPRP | -0.247
RRIRRRPPRLPRPRPRPEFQPRP | -0.0288
RRIRGRPPRLPRPRPRPPVVPRP | 1.7
RRIRNRPPRLPRPRPRPKIEPRP | -0.0398
RRIRTRPPRLPRPRPRPVYLPRP | -1.16
RRIRHRPPRLPRPRPRPSFTPRP | -0.632
RRIRNRPPRLPRPRPRPGSVPRP | -0.0436
RRIRKRPPRLPRPRPRPILDPRP | 0.15
RRIRDRPPRLPRPRPRPYRQPRP | 0.0922
RRIRPRPPRLPRPRPRPKQSPRP | 0.142
RRIRVRPPRLPRPRPRPVNHPRP | -0.306
RRIRIRPPRLPRPRPRPWNGPRP | -0.172
RRIRWRPPRLPRPRPRPTALPRP | 0.257
RRIRYRPPRLPRPRPRPLAMPRP | -0.311
RRIRWRPPRLPRPRPRPHERPRP | 0.156
RRIRSRPPRLPRPRPRPQKHPRP | -0.106
RRIRSRPPRLPRPRPRPYKQPRP | -0.62
RRIRSRPPRLPRPRPRPFWEPRP | 0.0122
RRIRHRPPRLPRPRPRPIYRPRP | -0.111
RRIRERPPRLPRPRPRPNWNPRP | -0.236
RRIRDRPPRLPRPRPRPLWDPRP | -0.0822
RRIRWRPPRLPRPRPRPRVEPRP | 0.0508
RRIRKRPPRLPRPRPRPNTWPRP | 0.0309
RRIRARPPRLPRPRPRPRMGPRP | 0.692

Sequence | shrunken log2 fold change
RRIRRRPPRLPRPRPRPVAQPRP | 0.324
RRIRLRPPRLPRPRPRPFIFPRP | -0.356
RRIRTRPPRLPRPRPRPGVNPRP | -0.0412
RRIRIRPPRLPRPRPRPYWRPRP | -0.478
RRIRIRPPRLPRPRPRPYLTPRP | -1.45
RRIRSRPPRLPRPRPRPFMSPRP | 0.00606
RRIRKRPPRLPRPRPRPIHKPRP | -0.211
RRIRLRPPRLPRPRPRPQQVPRP | 0.107
RRIRDRPPRLPRPRPRPMRCPRP | 0.147
RRIRCRPPRLPRPRPRPPCFPRP | 0.197
RRIRDRPPRLPRPRPRPWVTPRP | -0.0629
RRIRERPPRLPRPRPRPIWEPRP | 0.0512
RRIRHRPPRLPRPRPRPGNLPRP | -0.0177
RRIRTRPPRLPRPRPRPDRQPRP | -0.0344
RRIRFRPPRLPRPRPRPFMFPRP | -0.739
RRIRERPPRLPRPRPRPSYYPRP | -0.126
RRIRQRPPRLPRPRPRPEFVPRP | 0.031
RRIRGRPPRLPRPRPRPYSHPRP | -0.129
RRIRHRPPRLPRPRPRPDNCPRP | -0.0245
RRIRERPPRLPRPRPRPAQTPRP | 0.0281
RRIRHRPPRLPRPRPRPALYPRP | -0.033
RRIRRRPPRLPRPRPRPMRHPRP | 1.18
RRIRLRPPRLPRPRPRPMIYPRP | -0.0701
RRIRKRPPRLPRPRPRPAMNPRP | -0.0724
RRIRGRPPRLPRPRPRPGIPPRP | 0.351

Sequence | shrunken log2 fold change
RRIRWRPPRLPRPRPRPKFRPRP | 0.077
RRIRDRPPRLPRPRPRPPYFPRP | -0.0365
RRIRKRPPRLPRPRPRPKEHPRP | 0.405
RRIRTRPPRLPRPRPRPEQKPRP | 0.154
RRIRFRPPRLPRPRPRPLIMPRP | -0.352
RRIRYRPPRLPRPRPRPWPIPRP | 0.044
RRIRSRPPRLPRPRPRPEPPPRP | 0.662
RRIRHRPPRLPRPRPRPKHHPRP | -0.493
RRIRLRPPRLPRPRPRPSCYPRP | -0.164
RRIRRRPPRLPRPRPRPRCCPRP | 0.43
RRIRLRPPRLPRPRPRPYQAPRP | 0.0204
RRIRGRPPRLPRPRPRPPHKPRP | 0.858
RRIRVRPPRLPRPRPRPVQQPRP | -0.246
RRIRVRPPRLPRPRPRPFGKPRP | -0.151
RRIRGRPPRLPRPRPRPKLQPRP | 0.991
RRIRPRPPRLPRPRPRPKFAPRP | 0.409
RRIRHRPPRLPRPRPRPPIWPRP | 0.324
RRIRWRPPRLPRPRPRPLRFPRP | 0.399
RRIRARPPRLPRPRPRPWSLPRP | -0.181
RRIRRRPPRLPRPRPRPHPVPRP | 0.175
RRIRFRPPRLPRPRPRPVEKPRP | 0.149
RRIRDRPPRLPRPRPRPLANPRP | 0.861
RRIRGRPPRLPRPRPRPFVFPRP | 0.608
RRIRSRPPRLPRPRPRPFANPRP | -0.0026
RRIRARPPRLPRPRPRPTDRPRP | 0.0653
